B1: Mannose-1-phosphate guanylyltransferase regulatory subunit alpha (Homo sapiens), Q96IJ6-1 (parent)
chain: MLKAVILIGGPQKGTRFRPLSFEVPKPLFPVAGVPMIQHHIEACAQVPGMQEILLIGFYQPDEPLTQFLEAAQQEFNLPVRYLQEFAPLGTGGGLYHFRDQILAGSPEAFFVLNADVCSDFPLSAMLEAHRRQRHPFLLLGTTANRTQSLNYGCIVENPQTHEVLHYVEKPSTFISDIINCGIYLFSPEALKPLRDVFQRNQQDGQLEDSPGLWPGAGTIRLEQDVFSALAGQGQIYVHLTDGIWSQIKSAGSALYASRLYLSRYQDTHPERLAKHTPGGPWIRGNVYIHPTAKVAPSAVLGPNVSIGKGVTVGEGVRLRESIVLHGATLQEHTCVLHSIVGWGSTVGRWARVEGTPSDPNPNDPRARMDSESLFKDGKLLPAITILGCRVRIPAEVLILNSIVLPHKELSRSFTNQIIL

Variants of: B1
Conditions: with GMPPB

Variant | effect of a mutation on the interaction
R318E | disrupting interaction
E85K;Q247A | with no effect

The next lines start with the values.

effect of a mutation on the interaction | Variant
disrupting interaction | W350A;R352A
with no effect | E396R

— IntAct's records for PubMed 33986552
